Columns and labels:
[1] = target: HNH domain of NmeCas9 (Neisseria meningitidis) (UniProt C9X1G5); experiment: ITC
[2] = system: NmeCas9 (Neisseria meningitidis); experiment: fluorescence polarization; conditions: not given in the material (Methods absent)

| Substance | Kd [1] [nM] | Kd [2] [nM] |
| --- | --- | --- |
| AcrIIC1 from Neisseria meningitidis (natural protein) | 6.3 | – |
| NmeCas9 sgRNA + target DNA | – | 71 |
